In paper doi:10.1101/2025.08.01.668090, “Target Preference Maps: A machine learning model generalizing transferable drug-receptor interactions and guiding drug discovery” (bioRxiv, 2025):
Where no end group is shown, it is not given here.

Molecular target: T1, N-terminal domain of T. brucei PEX14 (residues 19-84) (T. brucei, UniProt Q38CL4 19-84)
T1 construct: also called N-His-PEX14; source: E. coli BL21(DE3), purified (Ni-NTA, Superdex 75); not shown: His tag, N-terminal, kept
T1 sequence (looked up): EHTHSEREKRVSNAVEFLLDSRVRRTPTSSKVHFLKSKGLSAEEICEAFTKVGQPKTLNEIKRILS
Experiment: AlphaScreen or HTRF; 3 nM N-His-PEX14 with 10 nM biotinylated PEX5-derived peptide in PBS with 5 mg/mL BSA and 0.01 % (v/v) Tween-20; streptavidin donor beads and nickel chelate acceptor beads, 5 ug/mL each; competition with small-molecule inhibitors (600-0 uM), 5% DMSO
Conditions: both partners purified

B1: biotinylated PEX5-derived peptide (ALSENWAQEFLA) (peptide)
peptide: ALSENWAQEFLA
modifications: also: biotinylated (position not given here)
notes: PEX5-derived peptide with a WxxxF motif; Held on streptavidin donor beads by its biotin; The same peptide was used with PEX14 of all three species
binding result: binds
